Columns and labels:
Test in all cases: HPLC of UDP release, initial rates, Michaelis-Menten fit
Type in all cases: biochemical, Citrus japonica
Conditions in all cases: 1.0 mM phloretin as acceptor, pH 8.0, 30 °C, donor 20-800 µM
[1] = substrate: O=c1ccn([C@@H]2O[C@H](COP(=O)(O)OP(=O)(O)O[C@H]3OC[C@@H](O)[C@H](O)[C@H]3O)[C@@H](O)[C@H]2O)c(=O)[nH]1
[2] = substrate: O=c1ccn([C@@H]2O[C@H](COP(=O)(O)OP(=O)(O)O[C@H]3O[C@H](CO)[C@H](O)[C@H](O)[C@H]3O)[C@@H](O)[C@H]2O)c(=O)[nH]1
[3] = substrate: O=c1ccn([C@@H]2O[C@H](CO[P@@](=O)(O)O[P@@](=O)(O)O[C@H]3O[C@H](CO)[C@@H](O)[C@H](O)[C@H]3O)[C@@H](O)[C@H]2O)c(=O)[nH]1

B1: FcCGT (Citrus japonica) (protein)
chain: MSDSGGFDSHPHVALIPSAGMGHLTPFLRLAASLVQHHCRVTLITTYPTVSLAETQHVSHFLSAYPQVTEKRFHLLPFDPNSANATDPFFLRWEAIRRSAHLLAPLLSPPLSALITDVTLISAVLPVTINLHLPNYVLFTASARMFSLTASFPAIVASKSTSSGSVEFDDDFIEIPGLPPIPLSSVPPAVMDSKSLFATSFLENGNSFVKSNGVLINSFDALEADTLVALNGRRVVAGLPPVYAVGPLLPCEFEKRDDPSTSLILKWLDDQPEGSVVYVSFGSRLALSMEQTKELGNGLLSSGCRFLWVVKGKTVDKEDEESLKNVLGHELMEKIKDQGLVVKNWVDQDKVLSHRAVGGFVSHGGWNSLVEAARHGVPVLVWPQFGDQKINAEAVESAGLGMWVRSWGWGTELRAKGDEIGLKIKDLMANDFLREQAKRIEEEARKAIGVGGSSERTFKELIDKWKCNNNTH
notes: recombinant purified; polypeptide Mr 53600; construct details in supplement and Li et al. 2023
[1]
  Km: 122 ± 11 µM
  kcat: 15 ± 0.8 min–1
[2]
  Km: 432 ± 26 µM
  kcat: 0.28 ± 0.01 min–1
[3]
  Km: 55 ± 2.4 µM
  kcat: 139 ± 2.5 min–1

Source: publication PMC11975207, “One‐Pot Hetero‐Di‐C‐Glycosylation of the Natural Polyphenol Phloretin by a Single C‐Glycosyltransferase With Broad Sugar Substrate Specificity” (Biotechnology and Bioengineering, 2025)
